Assay results as given in the supplement of paper PMC10567573.

B1: KCNK9 (parent)
chain: CFITLTTIGFGDYVALQTKGALQK

Variants of: B1
Assay: protein stability index of a GFP-peptide fusion (GPS, HEK-293T) (PSI 1-6); higher = more stable
Conditions: c terminus: a fixed tail appended
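Further: lentivirally expressed fusions sorted by FACS into six bins by GFP to DsRed ratio, PSI derived from sequencing read proportions per bin multiplied by bin number.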

Q: For CFITLTTIGFGDYKALQTKGALQK [V14K], which protein stability index is on record?
A: 1.82

Q: With CFITLTTIGFGDYWALQTKGALQK [V14W] as the variant, how does the protein stability index read?
A: 2.71

Q: Which protein stability index does the source give for CFITLTTIGFGDYAALQTKGALQK [V14A] here?
A: 3.25

Q: With CFITLTTIGFGDYDALQTKGALQK [V14D] as the variant, how does the protein stability index read?
A: 2.74

Q: Which protein stability index does the source give for CFITLTTIGFGDYMALQTKGALQK [V14M] here?
A: 2.02

Q: With CFITLTTIGFGDYEALQTKGALQK [V14E] as the variant, how does the protein stability index read?
A: 2.12

Q: With CFITLTTIGFGDYPALQTKGALQK [V14P] as the variant, how does the protein stability index read?
A: 2.82

Q: Which protein stability index does the source give for CFITLTTIGFGDYSALQTKGALQK [V14S] here?
A: 2.06

Q: Which protein stability index does the source give for CFITLTTIGFGDYQALQTKGALQK [V14Q] here?
A: 3.43

Q: Which protein stability index does the source give for CFITLTTIGFGDYTALQTKGALQK [V14T] here?
A: 2.64

Q: With CFITLTTIGFGDYIALQTKGALQK [V14I] as the variant, how does the protein stability index read?
A: 2.86

Q: Which protein stability index does the source give for CFITLTTIGFGDYHALQTKGALQK [V14H] here?
A: 2.99

Q: With CFITLTTIGFGDYGALQTKGALQK [V14G] as the variant, how does the protein stability index read?
A: 2.69

Q: With CFITLTTIGFGDYRALQTKGALQK [V14R] as the variant, how does the protein stability index read?
A: 2.7

Q: Which protein stability index does the source give for CFITLTTIGFGDYYALQTKGALQK [V14Y] here?
A: 3.12

Q: For CFITLTTIGFGDYFALQTKGALQK [V14F], which protein stability index is on record?
A: 3.46

Q: For CFITLTTIGFGDYNALQTKGALQK [V14N], which protein stability index is on record?
A: 1.86

Q: With CFITLTTIGFGDYLALQTKGALQK [V14L] as the variant, how does the protein stability index read?
A: 3.31

Q: With CFITLTLIGFGDYVALQTKGALQK [T7L] as the variant, how does the protein stability index read?
A: 3.38

Q: With CFITLTSIGFGDYVALQTKGALQK [T7S] as the variant, how does the protein stability index read?
A: 2.53

Q: For CFITLTVIGFGDYVALQTKGALQK [T7V], which protein stability index is on record?
A: 2.77

Q: For CFITLTIIGFGDYVALQTKGALQK [T7I], which protein stability index is on record?
A: 3.49

Q: Which protein stability index does the source give for CFITLTRIGFGDYVALQTKGALQK [T7R] here?
A: 2.44

Q: With CFITLTMIGFGDYVALQTKGALQK [T7M] as the variant, how does the protein stability index read?
A: 2.54

Q: Which protein stability index does the source give for CFITLTNIGFGDYVALQTKGALQK [T7N] here?
A: 1.78

Q: With CFITLTHIGFGDYVALQTKGALQK [T7H] as the variant, how does the protein stability index read?
A: 2.63

Q: For CFITLTYIGFGDYVALQTKGALQK [T7Y], which protein stability index is on record?
A: 2.13

Q: For CFITLTFIGFGDYVALQTKGALQK [T7F], which protein stability index is on record?
A: 3.36

Q: With CFITLTWIGFGDYVALQTKGALQK [T7W] as the variant, how does the protein stability index read?
A: 4.77

Q: Which protein stability index does the source give for CFITLTKIGFGDYVALQTKGALQK [T7K] here?
A: 1.73

Q: For CFITLTQIGFGDYVALQTKGALQK [T7Q], which protein stability index is on record?
A: 2.52

Q: Which protein stability index does the source give for CFITLTPIGFGDYVALQTKGALQK [T7P] here?
A: 2.32

Q: For CFITLTTIGFGDYVAGQTKGALQK [L16G], which protein stability index is on record?
A: 1.89

Q: With CFITLTTIGFGDYVAMQTKGALQK [L16M] as the variant, how does the protein stability index read?
A: 1.56

Q: Which protein stability index does the source give for CFITLTTIGFGDYVAHQTKGALQK [L16H] here?
A: 2.43

Q: For CFITLTTIGFGDYVAQQTKGALQK [L16Q], which protein stability index is on record?
A: 2.65

Q: For CFITLTTIGFGDYVAEQTKGALQK [L16E], which protein stability index is on record?
A: 3.25

Q: Which protein stability index does the source give for CFITLTTIGFGDYVAIQTKGALQK [L16I] here?
A: 2.65

Q: Which protein stability index does the source give for CFITLTTIGFGDYVAVQTKGALQK [L16V] here?
A: 3.73

Q: Which protein stability index does the source give for CFITLTTIGFGDYVASQTKGALQK [L16S] here?
A: 1.75

Q: Which protein stability index does the source give for CFITLTTIGFGDYVADQTKGALQK [L16D] here?
A: 2.23

Q: For CFITLTTIGFGDYVANQTKGALQK [L16N], which protein stability index is on record?
A: 2.54

Q: Which protein stability index does the source give for CFITLTTIGFGDYVARQTKGALQK [L16R] here?
A: 2.74

Q: With CFITLTTIGFGDYVAPQTKGALQK [L16P] as the variant, how does the protein stability index read?
A: 2.64

Q: For CFITLTTIGFGDYVAYQTKGALQK [L16Y], which protein stability index is on record?
A: 2.44

Q: Which protein stability index does the source give for CFITLTTIGFGDYVAFQTKGALQK [L16F] here?
A: 2.53

Q: Which protein stability index does the source give for CFITLTTIGFGDYVAAQTKGALQK [L16A] here?
A: 3.26

Q: For CFITLTTIGFGDYVAKQTKGALQK [L16K], which protein stability index is on record?
A: 3.4

Q: For CFITLTTIGFGDYVATQTKGALQK [L16T], which protein stability index is on record?
A: 2.26

Q: For CFITLTTIGFGDYVAWQTKGALQK [L16W], which protein stability index is on record?
A: 2.27

Q: With CFITLTTIGFGDYVACQTKGALQK [L16C] as the variant, how does the protein stability index read?
A: 2.03

Q: Which protein stability index does the source give for CFITLTTIGFGDYVSLQTKGALQK [A15S] here?
A: 4.26

Q: For CFITLTTIGFGDYVTLQTKGALQK [A15T], which protein stability index is on record?
A: 3.18

Q: With CFITLTTIGFGDYVRLQTKGALQK [A15R] as the variant, how does the protein stability index read?
A: 3.46

Q: Which protein stability index does the source give for CFITLTTIGFGDYVLLQTKGALQK [A15L] here?
A: 2.64

Q: With CFITLTTIGFGDYVKLQTKGALQK [A15K] as the variant, how does the protein stability index read?
A: 2.38

Q: Which protein stability index does the source give for CFITLTTIGFGDYVELQTKGALQK [A15E] here?
A: 2.93

Q: Which protein stability index does the source give for CFITLTTIGFGDYVILQTKGALQK [A15I] here?
A: 3.38

Q: Which protein stability index does the source give for CFITLTTIGFGDYVNLQTKGALQK [A15N] here?
A: 2.76

Q: With CFITLTTIGFGDYVGLQTKGALQK [A15G] as the variant, how does the protein stability index read?
A: 2.48

Q: Which protein stability index does the source give for CFITLTTIGFGDYVDLQTKGALQK [A15D] here?
A: 3.31

Q: With CFITLTTIGFGDYVQLQTKGALQK [A15Q] as the variant, how does the protein stability index read?
A: 2.3

Q: Which protein stability index does the source give for CFITLTTIGFGDYVPLQTKGALQK [A15P] here?
A: 3.05

Q: For CFITLTTIGFGDYVHLQTKGALQK [A15H], which protein stability index is on record?
A: 3.04

Q: With CFITLTTIGFGDYVMLQTKGALQK [A15M] as the variant, how does the protein stability index read?
A: 3.04

Q: For CFITLTTIGFGDYVCLQTKGALQK [A15C], which protein stability index is on record?
A: 3.23

Q: For CFITLTTIGFGDYVVLQTKGALQK [A15V], which protein stability index is on record?
A: 2.68

Q: With CFITLTTIGFGDYVFLQTKGALQK [A15F] as the variant, how does the protein stability index read?
A: 2.37

Q: Which protein stability index does the source give for CFITLTTIGFGDYVWLQTKGALQK [A15W] here?
A: 3.31

Q: With CFITLTTIGFGDYVYLQTKGALQK [A15Y] as the variant, how does the protein stability index read?
A: 2.43

Q: With CFITLTTIGMGDYVALQTKGALQK [F10M] as the variant, how does the protein stability index read?
A: 2.62

Q: For CFITLTTIGCGDYVALQTKGALQK [F10C], which protein stability index is on record?
A: 2.79

Q: With CFITLTTIGAGDYVALQTKGALQK [F10A] as the variant, how does the protein stability index read?
A: 2.05

Q: With CFITLTTIGHGDYVALQTKGALQK [F10H] as the variant, how does the protein stability index read?
A: 2.73

Q: For CFITLTTIGPGDYVALQTKGALQK [F10P], which protein stability index is on record?
A: 2.78

Q: For CFITLTTIGVGDYVALQTKGALQK [F10V], which protein stability index is on record?
A: 2.06

Q: Which protein stability index does the source give for CFITLTTIGLGDYVALQTKGALQK [F10L] here?
A: 2.73

Q: Which protein stability index does the source give for CFITLTTIGYGDYVALQTKGALQK [F10Y] here?
A: 2.12

Q: Which protein stability index does the source give for CFITLTTIGTGDYVALQTKGALQK [F10T] here?
A: 2.59

Q: For CFITLTTIGKGDYVALQTKGALQK [F10K], which protein stability index is on record?
A: 1.85

Q: Which protein stability index does the source give for CFITLTTIGGGDYVALQTKGALQK [F10G] here?
A: 2.16

Q: Which protein stability index does the source give for CFITLTTIGRGDYVALQTKGALQK [F10R] here?
A: 1.7

Q: For CFITLTTIGEGDYVALQTKGALQK [F10E], which protein stability index is on record?
A: 2.46

Q: With CFITLTTIGWGDYVALQTKGALQK [F10W] as the variant, how does the protein stability index read?
A: 2.33

Q: With CFITLTTIGQGDYVALQTKGALQK [F10Q] as the variant, how does the protein stability index read?
A: 1.56

Q: With CFITLTTIGSGDYVALQTKGALQK [F10S] as the variant, how does the protein stability index read?
A: 1.39

Q: Which protein stability index does the source give for CFITLTTIGNGDYVALQTKGALQK [F10N] here?
A: 1.58

Q: Which protein stability index does the source give for CFITLTTIGDGDYVALQTKGALQK [F10D] here?
A: 2.17

Q: For CFITLTTIGFGMYVALQTKGALQK [D12M], which protein stability index is on record?
A: 4.64

Q: For CFITLTTIGFGRYVALQTKGALQK [D12R], which protein stability index is on record?
A: 2.62

Q: With CFITLTTIGFGQYVALQTKGALQK [D12Q] as the variant, how does the protein stability index read?
A: 2.05

Q: Which protein stability index does the source give for CFITLTTIGFGWYVALQTKGALQK [D12W] here?
A: 2.12

Q: With CFITLTTIGFGIYVALQTKGALQK [D12I] as the variant, how does the protein stability index read?
A: 3.71

Q: For CFITLTTIGFGNYVALQTKGALQK [D12N], which protein stability index is on record?
A: 2.71
